{"source": "patent US20050118638A1", "key": {"[1]": {"target": "TSH receptor (detergent solubilised TSH receptor preparation) (UniProt P16473)", "sequence (P16473 21-764 limits assumed)": "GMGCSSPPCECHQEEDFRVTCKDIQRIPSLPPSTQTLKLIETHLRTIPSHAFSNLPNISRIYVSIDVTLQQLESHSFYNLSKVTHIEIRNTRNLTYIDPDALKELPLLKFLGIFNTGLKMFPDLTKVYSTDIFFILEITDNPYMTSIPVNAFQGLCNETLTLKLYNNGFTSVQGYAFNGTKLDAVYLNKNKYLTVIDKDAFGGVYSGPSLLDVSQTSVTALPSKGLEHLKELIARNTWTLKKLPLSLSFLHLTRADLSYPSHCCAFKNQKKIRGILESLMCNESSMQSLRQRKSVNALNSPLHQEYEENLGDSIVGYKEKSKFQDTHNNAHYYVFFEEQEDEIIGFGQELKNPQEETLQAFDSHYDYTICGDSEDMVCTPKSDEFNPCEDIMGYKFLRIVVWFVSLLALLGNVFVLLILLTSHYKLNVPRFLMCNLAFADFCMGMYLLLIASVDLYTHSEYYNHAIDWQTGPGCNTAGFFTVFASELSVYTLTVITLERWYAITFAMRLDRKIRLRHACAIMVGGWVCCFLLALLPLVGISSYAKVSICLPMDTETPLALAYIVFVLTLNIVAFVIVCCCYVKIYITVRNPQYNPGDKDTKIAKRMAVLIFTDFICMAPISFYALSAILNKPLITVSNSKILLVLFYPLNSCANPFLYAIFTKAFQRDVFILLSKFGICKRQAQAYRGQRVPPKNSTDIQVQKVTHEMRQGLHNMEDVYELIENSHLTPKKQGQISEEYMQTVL", "assay": "125I-TSH, TSHR coated tubes; 20 µg/ml"}, "[2]": {"target": "TSH receptor (detergent solubilised TSH receptor preparation) (UniProt P16473)", "assay": "125I-TSH, TSHR coated tubes; 200 µg/ml"}, "[3]": {"target": "TSH receptor (detergent solubilised TSH receptor preparation) (UniProt P16473)", "assay": "solubilised TSHR, PEG method; IgG 100 µg/ml; competitor 125I-16E5 Fab"}}, "data": [{"binder": "3B3 IgG (antibody, V domains shown) VH: DVQLQQPGAELVKPGASVKLSCTTSGVNIKDTYMHWMKQRPEQGLEWIGRIDPANGNTKYDPKFRGKATITADTSSNTVYVQLRSLTSEDTAVYYCAYDGYWGQGTLVTVSA VL: NIVMTQTPASLAVSLGQRATISCRASESVDSYGNNFMHWYQQKPGQSPRLLIYRASNLESGIPARFSGSGSRTDFTLTTNPVEADDVATYYCQQSHKDPLTFGAGTKLELK", "values": [{"measurement": "% inhibition of TSH binding", "setting": "[1]", "value": 6.1, "unit": "%"}, {"measurement": "% inhibition of TSH binding", "setting": "[2]", "value": 30.7, "unit": "%"}, {"measurement": "% inhibition of 125I-16E5 Fab binding", "setting": "[3]", "value": 8.8, "unit": "%"}]}]}
